# In publication PMC3470943, “Identification of BACE2 as an avid ß-amyloid-degrading protease” (Molecular Neurodegeneration, 2012):
# B1: BACE2: ß-site APP-cleaving enzyme-2, aspartyl protease; recombinant enzyme (R&D Systems) or transfected human cDNA (protein, UniProt Q9Y5Z0 63-518, looked up)
# Beta-secretase 2: ALEPALASPAGAANFLAMVDNLQGDSGRGYYLEMLIGTPPQKLQILVDTGSSNFAVAGTPHSYIDTYFDTERSSTYRSKGFDVTVKYTQGSWTGFVGEDLVTIPKGFNTSFLVNIATIFESENFFLPGIKWNGILGLAYATLAKPSSSLETFFDSLVTQANIPNVFSMQMCGAGLPVAGSGTNGGSLVLGGIEPSLYKGDIWYTPIKEEWYYQIEILKLEIGGQSLNLDCREYNADKAIVDSGTTLLRLPQKVFDAVVEAVARASLIPEFSDGFWTGSQLACWTNSETPWSYFPKISIYLRDENSSRSFRITILPQLYIQPMMGAGLNYECYRFGISPSTNALVIGATVMEGFYVIFDRAQKRVGFAASPCAEIAGAAVSEISGPFSTEDVASNCVPAQSLSEPILWIVSYALMSVCGAILLVLIVLLLLPFRCQRRPRDPEVVNDESSLVRHRWK
# B2: BACE1: ß-site APP-cleaving enzyme-1, homolog of BACE2; recombinant enzyme or transfected cDNA (protein, UniProt P56817 46-501, looked up)
# Beta-secretase 1: ETDEEPEEPGRRGSFVEMVDNLRGKSGQGYYVEMTVGSPPQTLNILVDTGSSNFAVGAAPHPFLHRYYQRQLSSTYRDLRKGVYVPYTQGKWEGELGTDLVSIPHGPNVTVRANIAAITESDKFFINGSNWEGILGLAYAEIARPDDSLEPFFDSLVKQTHVPNLFSLQLCGAGFPLNQSEVLASVGGSMIIGGIDHSLYTGSLWYTPIRREWYYEVIIVRVEINGQDLKMDCKEYNYDKSIVDSGTTNLRLPKKVFEAAVKSIKAASSTEKFPDGFWLGEQLVCWQAGTTPWNIFPVISLYLMGEVTNQSFRITILPQQYLRPVEDVATSQDDCYKFAISQSSTGTVMGAVIMEGFYVVFDRARKRIGFAVSACHVHDEFRTAAVEGPFVTLDMEDCGYNIPQTDESTLMTIAYVMAAICALFMLPLCLMVCQWRCLRCLRQQHDDFADDISLLK
# What was measured:
# [1] = system: pre-formed fibrils of Aß42; test: Thioflavin T fluorescence of pre-formed Aß42 fibrils incubated with BACE2; format: biochemical; conditions: BACE2 10 nM, 37°C, up to 3 d / 5 d (legend Figure 2D), 3 replicates
# Method: Figure 2 BACE2 degrades Aß in vitro. A, Percent Aß remaining following incubation with different concentrations of recombinant BACE2 for various lengths of time. Data are mean ± SEM of 4 replicates, normalized to protease-free controls. B, Comparison the relative Aß-degrading ability of recombinant BACE2 vs. BACE1. Note that 24 h incubation with BACE1 was required to achieve approximately the same extent of degradation as effected by BACE2 in 10 min. Data are mean ± SEM of 3 replicates, normalized to protease-free controls. C, BACE2 activity is pH dependent. Percent Aß degradation catalyzed by equivalent amounts of BACE2 at different pH values. Data are mean ± SEM of 4 replicates. […] Data are mean ± SEM of 3 replicates.
# Individual AßDPs can be categorized in terms of their ability or inability to degrade fibrillar forms of Aß. Many well-established AßDPs, such as IDE and NEP, avidly degrade monomeric Aß but cannot degrade fibrillar forms and are therefore categorized as pure peptidases. Others, such as plasmin, degrade Aß fibrils and thus can also be categorized as fibrilases.
# [2] = system: net Aß40 and Aß42 levels of CHO cells expressing APP-AP; test: Confirmation: co-transfection of BACE2 or BACE1 cDNA with APP-AP, Aß40 and Aß42 ELISA; format: cell-based; conditions: CHO cells co-transfected with APP-AP, 4 replicates, normalized to vector-only controls
# Method: Figure 1 Overview and outcome of functional screening for novel Aß-lowering proteases. A, Cartoon illustrating the overall design of the screen. Briefly, an arrayed collection of 352 protease-encoding cDNAs was cotransfected into CHO cells together with an APP-AP fusion construct. Following a medium change and overnight incubation, Aß40 levels, AP activity, and cytotoxicity (via MTT assay) were analyized in the resulting conditioned media. B, Results of the screen, expressed as [Aß40]/AP ratios normalized to intraplate controls. Data are mean of 4 replicates. Note that the largest decrease in Aß levels by far was acheived by BACE2. C, Confirmation of the results of the screen. Following scale-up and sequence verification, cDNAs encoding BACE2 and its homolog, BACE1, were cotransfected together with APP-AP into CHO cells. […]
# Aβ levels were quantified using a sandwich ELISA system based on antibody pairs 33.1.1/13.1.1 for Aβ40 and 2.1.3/4 G8 for Aβ42 as described previously. Conditioned media were supplemented with Complete^TM Protease Inhibitor Cocktail (Roche) just after collection and analyzed immediately. For experiments quantifying intracellular Aß, cells were plated in 96-well plates (2 x 10^4 cells per well) and transfected with BACE2-encoding cDNA or empty vector, washed, then incubated with 400 nM synthetic Aß for 6 h. […]
# [3] = system: Aß (fluorescent substrate FAβB); test: Fluorescence polarization-based Aß degradation assay; format: biochemical; conditions: 37°C
# Method: The kinetics of Aβ40 and Aβ42 degradation by BACE2 were determined using freshly prepared, monomeric Aβ peptides separated from aggregated species by size-exclusion chromatography and characterized as described. Aβ peptides were diluted in neutral Dilution Buffer (20 mM Tris, pH 8.0 supplemented with 0.1% BSA) and reactions were initiated by transfer into 20 times more volume of Assay Buffer supplemented with purified recombinant BACE2 (R&D Systems, nominal concentration 1 or 5 nM) or, as a control for non-specific loss of Aβ, the latter buffer lacking BACE2. Where required, reactions were terminated by supplementation with protease inhibitor cocktail and adjustment to neutral pH. For ELISA-based experiments, Aβ42 and Aβ40 were quantified using the sandwich ELISAs described above. […] For determination of the pH dependence of Aβ degradation, experiments were carried same as described above, using Assay Buffer at different pH values (3.0, 3.5, 4.0, 4.5, 5.0, 5.5). The reactions were stopped at 10 min and the remaining 200nM of Aβ was determined using a well-characterized fluorescence polarization-based activity Aß degradation assay, as described. […] The degree of Aβ hydrolysis was immediately determined using a polarization-based Aß degradation assay. […]
# [4] = system: Aß40 levels produced by CHO cells co-transfected with human APP-AP; test: Functional cDNA screen for Aß-lowering proteases, co-transfection with APP-AP; format: cell-based, CHO cells (rodent cell line); conditions: protease cDNA 100 ng/well co-transfected with APP-AP 60 ng/well; 24 h conditioned medium; normalized to intra-plate controls; quadruplicate
# Method: A library of 352 full-length, sequence verified, human cDNAs encoding diverse members of all protease classes was purchase from a commercial source (OriGene Technologies, Inc.) in 96-well format (100 ng/well). For negative and positive controls, a subset of blank wells on each plate were supplemented with empty vector or a construct expressing a well-established AßDP, human ECE1b, respectively (100 ng/well). As a source of human Aß and also as a transfection control, each well was cotransfected with a hybrid construct, APP-AP (60 ng/well), comprised of a vector expressing wild-type human APP fused at its N-terminus with alkaline phosphatase (AP). Additional blank wells were left untreated for cell-free background controls. […]
# Following heat treatment to inactivate endogenous phosphatases (65°C for 15 min) present in the media, conditioned media (30 μL/well) was added to 96-well plates containing AP substrate, 4-nitrophenylphosphate (170 μL/well, 2 mg/mL), dissolved in AP buffer (1 M diethanolamine, 0.5 mM MgCl2, 10 mM L-homoarginine, pH 9.8). Plates were incubated for 30 min and AP activity was determined from absorbance (OD405) using a SpectraMax® M5^e multilabel plate reader (Molecular Devices).
# Aβ levels were quantified using a sandwich ELISA system based on antibody pairs 33.1.1/13.1.1 for Aβ40 and 2.1.3/4 G8 for Aβ42 as described previously. […]
Molecule,effect on aggregation of pre-formed Aß42 fibrils [1],effect of overexpression on net Aß40 and Aß42 levels [2],"pH of maximal Aß40 hydrolysis ([3]; Assay Buffer at pH 3.0, 3.5, 4.0, 4.5, 5.0, 5.5, 200 nM Aβ, stopped at 10 min, 4 replicates)",decrease in normalized Aß levels ([Aß40]/AP ratio) [4] [%],"efficiency of Aß degradation, fold lower than that of BACE2 ([3]; BACE1 24 h vs BACE2 10 min for a similar extent of degradation, Assay Buffer pH 4.0)"
B1,No significant reduction in aggregation,decreased the levels of both Aβ40 and Aβ42,3.5,97 ± 1.2,–
B2,–,no effect,–,–,~ 150 fold
